# Measured values as given in IntAct's records for PubMed 20176808.
# B1: Inactive serine/threonine-protein kinase TEX14 (Mus musculus), Q7M6U3 (parent)
# chain: MSRGAPFPVPCPVLLGTFTDDSLEAQLHEYAKQGNCVKLKKILKKGVCVDAVNTQGQSALFVAALLGHVKLVDVLVDYGSDPNHRCFDGSTPVHAAAFSGNQWILSKLLTAGGDLRLHDEKGRNPQAWALTAGKDRSTQMVEFMQRCTSHMKAIIQGFSYDLLKKIDSPQRLIGSPPWFGSLIQGSPNSSPNRQLKPGIISAQNIYSFGFGKFYLTSGMQLTYPGSLPVIGEKEVVQADDEPTFSFFSGPYMVMTNLVWNRSRVTVKELNLPTRPHCSRLRLADLLIAEQEHSSNLRHPNLLQLMAVCLSRDLEKIRLVYERITVGTLFSVLHERRSQFPVLHMEVIVHLLLQVADALIYLHSRGFIHRSLSSYAVHIVSAGEARLTNLEYLTESQDSGAHRNVTRMPLPTQLYNWAAPEVVLQKAATVKSDIYSFSVIIQEILTDSIPWNGLDGSLVKETIALGNYLEADVRLPEPYYDIVKSGIHAKQKNRTMNLQDIRYILKNDLKEFIGAQKTQPTESPRGQSYEPHPDVNICLGLTSEYQKDPPDLDIKELKEMGSQPHSPTDHSFLTVKPTLAPQTLDSSLSAQKPDNANVPSPPAACLAEEVRSPTASQDSLCSFEINEIYSGCLTLGTDKEEECLGTAASPEGDRPNQGDELPSLEEELDKMERELHCFCEEDKSISEVDTDLLFEDDDWQSDSLGSLNLPEPTREAKGKTSSWSKTDEYVSKCVLNLKISQVMMQQSAEWLRKLEQEVEELEWAQKELDSQCSSLRDASLKFANAKFQPAVGPPSLAYLPPVMQLPGLKQPENGGTWLTLARSPGNEREFQEGHFSKKPEKLSACGWKPFTQVSEESRGDCSELNNQLPTLRGPGKQSTGEQLPSTQEARESLEKNTNQNSRSMASVSSEIYATKSRNNEDNGEAHLKWRLAVKEMAEKAVSGQLLLPPWNPQSSAPFESKVENESTPLPRPPIRGPESTEWQHILEYQRENDEPKGNTKFGKMDNSDCDKNKHSRWTGLQRFTGIRYPFFRNHEQPEQNEASQASCDTSVGTEKFYSTSSPIGDDFERFQDSFAQRQGYVEENFQIREIFEKNAEILTKPQFQAIQCAEDKQDETLGETPKELKEKNTSLTDIQDLSSITYDQDGYFKETSYKTPKLKHAPTSASTPLSPESISSAASHYEDCLENTTFHVKRGSTFCWNGQEAMRTLSAKFTTVRERAKSLESLLASSKSLPAKLTDSKRLCMLSETGSSNVSAAFVTSTHATKRKSLPRELAEATSQQHLDELPPPAQELLDEIEQLKQQQVSSLASHENTARDLSVTNKDKKHLEEQETNSSKDSSFLSSREIQDLEDTERAHSSLDEDLERFLQSPEENTALLDPTKGSTREKKNKDQDVVEQKRKKKESIKPERRESDSSLGTLEEDELKPCFWKRLGWSEPSRIIVLDQSDLSD
# partner: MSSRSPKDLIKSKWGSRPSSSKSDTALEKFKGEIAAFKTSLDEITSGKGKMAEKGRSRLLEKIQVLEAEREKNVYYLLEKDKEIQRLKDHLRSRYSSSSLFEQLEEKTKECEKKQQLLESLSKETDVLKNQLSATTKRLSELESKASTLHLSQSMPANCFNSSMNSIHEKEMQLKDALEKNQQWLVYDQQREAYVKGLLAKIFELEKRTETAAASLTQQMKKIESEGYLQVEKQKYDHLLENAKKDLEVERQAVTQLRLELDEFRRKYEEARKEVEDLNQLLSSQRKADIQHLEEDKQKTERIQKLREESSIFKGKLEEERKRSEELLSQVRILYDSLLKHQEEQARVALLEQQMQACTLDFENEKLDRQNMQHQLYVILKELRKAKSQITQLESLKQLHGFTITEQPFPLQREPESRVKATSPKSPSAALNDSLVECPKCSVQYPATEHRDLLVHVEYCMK
# Variants of: B1
# Conditions: with cep55_mouse Cep55, Q8BT07
row,Variant,effect of a mutation on the interaction
1,Y797A,disrupting interaction
2,P793A,decreasing interaction
3,P792A,disrupting interaction
